In publication PMC11625884:

Biological target: AMBRA1^WD40 (UniProt Q9C0C7)
Assay: co-IP; AMBRA1 antibody (Proteintech) coupled to Dynabeads, mixed with lysate of SHSY5Y cells overexpressing AMBRA1 constructs; washed; western blot for the protein of interest

Sequence of UniProt Q9C0C7 (Q9C0C7 whole entry): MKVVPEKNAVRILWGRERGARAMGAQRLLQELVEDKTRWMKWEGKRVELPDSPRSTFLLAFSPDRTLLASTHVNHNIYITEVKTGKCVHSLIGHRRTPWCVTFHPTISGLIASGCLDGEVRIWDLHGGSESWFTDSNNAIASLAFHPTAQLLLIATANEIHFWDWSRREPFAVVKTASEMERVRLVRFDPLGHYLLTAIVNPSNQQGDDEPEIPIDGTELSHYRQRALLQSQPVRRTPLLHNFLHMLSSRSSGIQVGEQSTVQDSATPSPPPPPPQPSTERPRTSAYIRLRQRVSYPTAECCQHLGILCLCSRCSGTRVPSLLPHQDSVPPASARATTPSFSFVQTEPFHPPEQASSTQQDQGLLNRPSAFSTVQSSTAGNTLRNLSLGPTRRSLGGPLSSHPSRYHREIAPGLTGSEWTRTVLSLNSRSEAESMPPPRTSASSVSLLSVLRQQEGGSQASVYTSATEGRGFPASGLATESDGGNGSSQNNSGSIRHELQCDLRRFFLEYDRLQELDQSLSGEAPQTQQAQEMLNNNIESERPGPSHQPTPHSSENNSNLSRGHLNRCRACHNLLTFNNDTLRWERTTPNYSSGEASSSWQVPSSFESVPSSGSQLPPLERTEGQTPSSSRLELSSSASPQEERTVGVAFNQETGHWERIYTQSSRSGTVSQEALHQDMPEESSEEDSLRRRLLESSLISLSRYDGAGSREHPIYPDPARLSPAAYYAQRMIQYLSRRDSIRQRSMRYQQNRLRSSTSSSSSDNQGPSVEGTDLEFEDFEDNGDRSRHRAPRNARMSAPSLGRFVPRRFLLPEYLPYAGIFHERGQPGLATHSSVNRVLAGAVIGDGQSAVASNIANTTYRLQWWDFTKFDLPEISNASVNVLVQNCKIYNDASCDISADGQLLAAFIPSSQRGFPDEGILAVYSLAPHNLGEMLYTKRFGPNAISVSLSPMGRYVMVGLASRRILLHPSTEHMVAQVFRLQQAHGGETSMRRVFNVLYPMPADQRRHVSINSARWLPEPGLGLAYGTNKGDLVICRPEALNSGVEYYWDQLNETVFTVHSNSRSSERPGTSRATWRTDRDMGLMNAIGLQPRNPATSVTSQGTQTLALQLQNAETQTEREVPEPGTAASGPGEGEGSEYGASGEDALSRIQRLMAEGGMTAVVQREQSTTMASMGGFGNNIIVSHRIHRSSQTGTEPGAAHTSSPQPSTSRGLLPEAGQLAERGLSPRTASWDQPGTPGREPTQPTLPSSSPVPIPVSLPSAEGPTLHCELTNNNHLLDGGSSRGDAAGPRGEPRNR

Substance: DDB1 (from UniProt Q16531 1-1140) (natural protein)
- fold change of the AMBRA1/DDB1 interaction against AMBRA1^WT: 0.5 fold
